The results in this text go back to patent US6858425.

The test system of the data set is mannose 6-phosphate receptors on the cell surface of fibroblasts.

Turning to “recombinant human acid α-glucosidase produced in the milk of transgenic mice”, the “restoration of acid α-glucosidase activity in GSD II patient fibroblasts after 20 hours with the enzyme” value is recorded as “Under these conditions acid α-glucosidase of the patient fibroblasts was restored to the level measured in fibroblasts from healthy individuals” and the “restoration of acid α-glucosidase activity in GSD II patient fibroblasts, with 5 mM mannose 6-phosphate as a competitor” value is recorded as “Restoration by α-glucosidase form milk was inhibited by 5 mM mannose 6-phosphate”.
